Experimental data reported in patent US20190142971A1, “FORMULATION AND DELIVERY OF MODIFIED NUCLEOSIDE, NUCLEOTIDE, AND NUCLEIC ACID COMPOSITIONS” (ModernaTX, Inc., priority 2013, published 2019).

Legend:
mice = assay: Example 19A: LNP IV in mice, serum EPO/G-CSF ELISA (Table 36); assay type: in vivo
Method: Formulations, listed in Table 33, were characterized by particle size, zeta potential, and encapsulation.
LNP formulations, shown in Table 33 (above), were administered to mice (n=4) intravenously (IV) at a single modified mRNA dose 0.05 mg/kg or 0.005 mg/kg. There was also 3 control groups of mice (n=4) that were untreated. The mice were bled at 2 hours, 8 hours, 24 hours, 48 hours and 72 hours after they were administered with G-CSF or EPO modified mRNA formulations to determine the protein expression. Protein expression of G-CSF and EPO were determined using ELISA.

[1] = system: non-human primates (cynomolgus monkey); assay: Example 22: NHP hematology: neutrophils, reticulocytes, HGB, HCT, RBC (Tables 40-44); assay type: in vivo; settings: for HCT / RBC: 0.005 mg/kg
Method: LNP formulations, shown in Table 33 (above), were administered to non-human primates (NHP) (cynomolgus monkey) (n=2) as intravenous injection (IV). The NHP were administered a single modified mRNA IV dose of 0.5 mg/kg, 0.05 mg/kg or 0.005 mg/kg of G-CSF or EPO in a dose volume of 0.5 mL/kg. The NHPs were bled before dosing with the modified mRNA LNP formulations to determine protein expression in the serum and a baseline complete blood count. After administration with the G-CSF modified mRNA formulation the NHP were bled at 8, 24, 48 and 72 hours to determined protein expression. After administration with the EPO modified mRNA formulation the NHP were bled at 8, 24, 48, 72 hours and 7 days to determined protein expression.
Samples collected from the NHPs after they were administered with G-CSF or EPO modified mRNA formulations were analyzed by ELISA to determine protein expression. Neutrophil and reticulocyte count was also determined pre-dose, 24 hours, 3 days, 7 days, 14 days and 18 days after administration of the modified G-CSF or EPO formulation.

B1: EPO: modified mRNA encoding human erythropoietin, SEQ ID NO: 7, Cap1, fully modified with 5-methylcytosine and pseudouridine; LNP NPA-060-1 in Examples 17-22 (nucleic acid)
chain: GGGAAAUAAGAGAGAAAAGAAGAGUAAGAAGAAAUAUAAGAGCCACCAUGGGAGUGCACGAGUGUCCCGCGUGGUUGUGGUUGCUGCUGUCGCUCUUGAGCCUCCCACUGGGACUGCCUGUGCUGGGGGCACCACCCAGAUUGAUCUGCGACUCACGGGUACUUGAGAGGUACCUUCUUGAAGCCAAAGAAGCCGAAAACAUCACAACCGGAUGCGCCGAGCACUGCUCCCUCAAUGAGAACAUUACUGUACCGGAUACAAAGGUCAAUUUCUAUGCAUGGAAGAGAAUGGAAGUAGGACAGCAGGCCGUCGAAGUGUGGCAGGGGCUCGCGCUUUUGUCGGAGGCGGUGUUGCGGGGUCAGGCCCUCCUCGUCAACUCAUCACAGCCGUGGGAGCCCCUCCAACUUCAUGUCGAUAAAGCGGUGUCGGGGCUCCGCAGCUUGACGACGUUGCUUCGGGCUCUGGGCGCACAAAAGGAGGCUAUUUCGCCGCCUGACGCGGCCUCCGCGGCACCCCUCCGAACGAUCACCGCGGACACGUUUAGGAAGCUUUUUAGAGUGUACAGCAAUUUCCUCCGCGGAAAGCUGAAAUUGUAUACUGGUGAAGCGUGUAGGACAGGGGAUCGCUGAUAAGCUGCCUUCUGCGGGGCUUGCCUUCUGGCCAUGCCCUUCUUCUCUCCCUUGCACCUGUACCUCUUGGUCUUUGAAUAAAGCCUGAGUAGGAAG
modifications: Cap1, 5-methylcytosine, pseudouridine
EPO / G-CSF Serum Concentration (mice; 0.005 mg/kg, 2 hours): OSC | EPO / G-CSF Serum Concentration (mice; 0.005 mg/kg, 8 hours): 1,632.8 pg/ml | EPO / G-CSF Serum Concentration (mice; 0.005 mg/kg, 24 hours): 1,141.0 pg/ml | EPO / G-CSF Serum Concentration (mice; 0.005 mg/kg, 48 hours): 137.4 pg/mL | EPO / G-CSF Serum Concentration (mice; 0.005 mg/kg, 72 hours): 0 pg/mL | EPO / G-CSF Serum Concentration (mice; 0.05 mg/kg, 2 hours): 10,027.3 pg/ml | EPO / G-CSF Serum Concentration (mice; 0.05 mg/kg, 8 hours): 56,547.2 pg/ml | EPO / G-CSF Serum Concentration (mice; 0.05 mg/kg, 24 hours): 25,027.3 pg/ml | EPO / G-CSF Serum Concentration (mice; 0.05 mg/kg, 48 hours): 1,432.3 pg/ml | EPO / G-CSF Serum Concentration (mice; 0.05 mg/kg, 72 hours): 82.2 pg/mL | Female NHP HGB ([1]; 0.005 mg/kg IV, 14/18 days): 129 g/L | Female NHP Neutrophils ([1]; 0.005 mg/kg IV, 14/18 days): 2.54 10^9/L | Male NHP HGB ([1]; 0.005 mg/kg IV, 14/18 days): 128 g/L | Male NHP Neutrophils ([1]; 0.005 mg/kg IV, 14/18 days): 1.52 10^9/L | Female NHP HGB ([1]; 0.005 mg/kg IV, 24 hours): 128 g/L | Female NHP Neutrophils ([1]; 0.005 mg/kg IV, 24 hours): 2.59 10^9/L | Male NHP HGB ([1]; 0.005 mg/kg IV, 24 hours): 122 g/L | Male NHP Neutrophils ([1]; 0.005 mg/kg IV, 24 hours): 5.37 10^9/L | Female NHP HGB ([1]; 0.005 mg/kg IV, 3 days): 130 g/L | Female NHP Neutrophils ([1]; 0.005 mg/kg IV, 3 days): 2.83 10^9/L | Male NHP HGB ([1]; 0.005 mg/kg IV, 3 days): 125 g/L | Male NHP Neutrophils ([1]; 0.005 mg/kg IV, 3 days): 6.08 10^9/L | Female NHP HGB ([1]; 0.005 mg/kg IV, 7 days): 127 g/L | Female NHP Neutrophils ([1]; 0.005 mg/kg IV, 7 days): 2.23 10^9/L | Male NHP HGB ([1]; 0.005 mg/kg IV, 7 days): 119 g/L | Male NHP Neutrophils ([1]; 0.005 mg/kg IV, 7 days): 3.51 10^9/L | Female NHP HGB ([1]; 0.005 mg/kg IV, Pre-dose): 136 g/L | Female NHP Neutrophils ([1]; 0.005 mg/kg IV, Pre-dose): 5.96 10^9/L | Male NHP HGB ([1]; 0.005 mg/kg IV, Pre-dose): 132 g/L | Male NHP Neutrophils ([1]; 0.005 mg/kg IV, Pre-dose): 5.46 10^9/L | HCT ([1]; 14/18 days, Female NHP): 0.42 L/L | RBC ([1]; 14/18 days, Female NHP): 5.36 10^12/L | HCT ([1]; 14/18 days, Male NHP): 0.42 L/L | RBC ([1]; 14/18 days, Male NHP): 5.67 10^12/L | HCT ([1]; 24 hours, Female NHP): 0.43 L/L | RBC ([1]; 24 hours, Female NHP): 5.35 10^12/L | HCT ([1]; 24 hours, Male NHP): 0.42 L/L | RBC ([1]; 24 hours, Male NHP): 5.63 10^12/L | HCT ([1]; 3 days, Female NHP): 0.42 L/L | RBC ([1]; 3 days, Female NHP): 5.42 10^12/L | HCT ([1]; 3 days, Male NHP): 0.44 L/L | RBC ([1]; 3 days, Male NHP): 5.77 10^12/L | HCT ([1]; 7 days, Female NHP): 0.42 L/L | RBC ([1]; 7 days, Female NHP): 5.35 10^12/L | HCT ([1]; 7 days, Male NHP): 0.41 L/L | RBC ([1]; 7 days, Male NHP): 5.49 10^12/L | HCT ([1]; Pre-dose, Female NHP): 0.45 L/L | RBC ([1]; Pre-dose, Female NHP): 5.72 10^12/L | HCT ([1]; Pre-dose, Male NHP): 0.48 L/L | RBC ([1]; Pre-dose, Male NHP): 6.15 10^12/L | Female NHP HGB ([1]; 0.05 mg/kg IV, 14/18 days): 129 g/L | Female NHP Neutrophils ([1]; 0.05 mg/kg IV, 14/18 days): 1.27 10^9/L | Male NHP HGB ([1]; 0.05 mg/kg IV, 14/18 days): 133 g/L | Male NHP Neutrophils ([1]; 0.05 mg/kg IV, 14/18 days): 1.53 10^9/L | Female NHP HGB ([1]; 0.05 mg/kg IV, 24 hours): 116 g/L | Female NHP Neutrophils ([1]; 0.05 mg/kg IV, 24 hours): 2.63 10^9/L | Male NHP HGB ([1]; 0.05 mg/kg IV, 24 hours): 123 g/L | Male NHP Neutrophils ([1]; 0.05 mg/kg IV, 24 hours): 2.51 10^9/L | Female NHP HGB ([1]; 0.05 mg/kg IV, 3 days): 120 g/L | Female NHP Neutrophils ([1]; 0.05 mg/kg IV, 3 days): 4.08 10^9/L | Male NHP HGB ([1]; 0.05 mg/kg IV, 3 days): 116 g/L | Male NHP Neutrophils ([1]; 0.05 mg/kg IV, 3 days): 1.73 10^9/L | Female NHP HGB ([1]; 0.05 mg/kg IV, 7 days): 121 g/L | Female NHP Neutrophils ([1]; 0.05 mg/kg IV, 7 days): 2.77 10^9/L | Male NHP HGB ([1]; 0.05 mg/kg IV, 7 days): 126 g/L | Male NHP Neutrophils ([1]; 0.05 mg/kg IV, 7 days): 1.23 10^9/L
